According to paper PMC3942423 (Nature chemical biology, 2009):

Tests used:
[1] = substrate: OC[C@H]1O[C@H](O[C@H]2[C@@H](O)[C@H](O)[C@@H](CO)O[C@@H]2O)[C@@H](O)[C@@H](O)[C@@H]1O; experiment: mannobiose hydrolysis kinetics; format: biochemical, Bacteroides thetaiotaomicron; settings: other: most active mannobiose substrate
[2] = substrate: O=[N+]([O-])c1ccc(O[C@H]2O[C@H](CO)[C@@H](O)[C@H](O)[C@@H]2O)cc1; experiment: 4NP-Man hydrolysis kinetics; format: biochemical, Bacteroides thetaiotaomicron; settings: other: substrate 4NP-Man
[3] = substrate: OC[C@H]1O[C@H](O[C@@H]2[C@H](O)[C@@H](O)O[C@H](CO)[C@H]2O)[C@@H](O)[C@@H](O)[C@@H]1O; experiment: purified protein, by the assay type; settings: other: most active mannobiose substrate, pH 7.0, 37.0 °C

B1: Bt3962 (Bacteroides thetaiotaomicron VPI-5482) (protein)
chain: QKQPVDYVNPLMGTDSKISLSNGNTYPAIALPWGMNFWMPQTGKMGDGWAYTYASDKIRGFKQTHQPSPWINDYGQFSIMPMTKQLKIDQDSRASWFSHKAEKATPYYYSVYLSEYNMTTEIAPTERCAYFRFTFPEASDAYVVVDAFDRGSYVKVIPEENKIVGYTTRNSGGVPQNFRNYFVIEFDKPFTFNKVWADYHLVETHLELQSNHVGAAIGFSTKKGEQVHAKVASSFISPEQAELNLKEIGNKTFEQTKEAGRKAWNDVLGRIKVEDDDENRMRTFYSCLYRSVLFPRMFHEVNAKGETVHYSPYNGEIRPGYMFTDTGFWDTFRCLFPFVNLIYPSMGEKMQEGLLNTYLESGFFPEWASPGHRGCMVGNNSASVVADAFMKNVTKADAEKMYEGLLKGANSVHPRVSTTGRRGYEYYNKLGYVPYDVKINENAARTLEYAYDDWCIYRMGEKLGRPAEELELYKSRSQNYRNLFDPETKLMRGKNADGTFQTPFNPFKWGDAFTEGNSWHYTWSVFHDVQGLADLMGGRKMFVSMLDSVFNLPPIFDDSYYGGVIHEIREMEIANMGNYAHGNQPIQHMIYLYNYAGEPWKAQYWLREVMNRLYFATPDGYCGDEDNGQTSAWYVFTALGFYPVCPGSNEYVMGAPYFKKATITLENGKKLEISAPKNSDANRYIRSLNYNGKNYTKNYLNHFDLLKGGRLVFDMDNKPNKGRGINESDFPYSFSRDNK
[1]; enzyme Bt3962, pH 7.0
  Km: 430 ± 52 µM
  kcat: 13.7 s⁻¹
  kcat/Km: 31700 M⁻¹ s⁻¹
[2]; enzyme Bt3962, pH 7.0
  Km: 5000 ± 840 µM
  kcat: 0.283 ± 0.0267 s⁻¹
  kcat/Km: 56.7 M⁻¹ s⁻¹

B2: Bt1769 (Bacteroides thetaiotaomicron VPI-5482) (protein)
chain: CNGSLQTADRTPVDYVNPYIGNISHLLVPTFPTIQLPNSMLRVYPERADYTSELLKGLPLIVTNHRERSAFNFSPYQGEKLRPVITYNYDNEHITPYSFDVELDDNRMKAEYALSHQSAIYRITYEADKPAYLIVNSRNGSIHANENFISGRQQLNDNTNVYVYIEAQEKPISAGILENGTIETSKDNAEGANACAAWRFADGTTTVNLRYGISFISEEQAEKNLHRELKDYNIKALAEAGRQIWNETLGRIQVEGGTEDDKTVFYSSFYRTFERPICMSEGGRYFSAFDGKVHEDNGTPFYTDDWIWDTYRAAHPLRTLIDQQKEEDIIASYLRMAEQMGNMWMPTFPEVTGDTRRMNSNHAVATVADALAKGLKVDTAKAYEACRKGIEEKTLAPWSGAPAGWLDNFYRENGYIPALRVDEPENDPNVHPFEKRQPVAVTLGTSYDQWCLSRIAQALNKKEEAEYYLKCSYNYRNLYNKETAFFHPKDKEGQWIEPFDYRFPGGMGAREYYGENNGWVYRWDVPHNVADLISLMGGNEQFIANLDRTFTEPLGRSKYAFYAKLPDHTGNVGQFSMANEPSLHVPYLYNYAGQPWKTQKRIRQMLKTWFRNDLMGIPGDEDGGGMTSFVVFSSLGFYPVTPGLPAYTIGSPLFTDAKIRLSNGAVFEIEAKNASTDNKYIQSATLNGKEWNKSWFSHDDLMSGGKLVLVMGNKPNKTWASGAEDVPPSLEIK
[3]; enzyme Bt1769
  Km: 1300 ± 140 µM
  kcat: 63.3 s⁻¹
  kcat/Km: 48300 M⁻¹ s⁻¹

B3: Bt3773 (Bacteroides thetaiotaomicron VPI-5482) (protein)
chain: KQDYSKSEGLLQYVDPYIGSGFHGHVFVGTSVPYGMVQLGPNNIHKGWDWCSGYHYSDSILIGFSHTHLSGTGCTDLGDILIMPLNEIRTPRGNQDDIRDGYASKYSHDNEIARPEYYSLILDRYNIKAELTATDRVGFHRYTYPEGKPVSILIDLREGNGSNAYDSYIRKVDDYTVEGYRYVRGWSPSRKVYFVLKSDQKIEKFTAYDDNTPKLWDQLKVESVKSVLTFGNVKEVKIKVAISSVSCDNAAMNLQAELSHWDFDKVVKMSSDRWNKQLDKMTVESDDEAAKRVFYTAHYHTMIAPTLYCDVNGEYRGMNDMIYTDPKKANYTTLSLWDTYRALNPLMTIIQPEMVDNVINSMLSIYRQQDKLPIWPLMSGETNCMPGYSSVPVIADAYLKGFTGFDAEEALTAMKATATYEGQNGVPYVMAKGYIPADKIHEATSIAMEYAVDDWGIAAMAQKMGKTADYETFSKRAHYYKNYFDSSIHFIRPKLEDGSWRTPYDPARSIHGVGDFCEGNGWQYTFFAPQDPYGLISLFGGDKPFTSKLDSFFTNNDSMGEGASSDITGLIGQYAHGNEPSHHIAYLYTYAGEQWKTAEKVRFIMSDFYTDQPDGIIGNEDCGQMSAWYLLSAMGFYQVNPSDGVFAFGSPRFKKIEVKVRGGKVFTVEAPNNSKDNIYIQKVYLNGKPYHKSYITYDDIINGSTLKFEMGKKPAKNFGKASANRPIVLNK
[3]; enzyme Bt3773
  Km: 2500 ± 370 µM
  kcat: 0.0183 s⁻¹
  kcat/Km: 7.5 M⁻¹ s⁻¹

B4: Bt3990 (Bacteroides thetaiotaomicron VPI-5482) (protein)
chain: KDWTQYVNPLMGSQSTFELSTGNTYPAIARPWGMNFWTPQTGKMGDGWQYTYTANKIRGFKQTHQPSPWINDYGQFSIMPIVGQPVFDEEKRASWFAHKGEVATPYYYKVYLAEHDIVTEMTPTERAVLFRFTFPENDHSYVVVDAFDKGSYIKIIPEENKIIGYTTRNSGGVPENFKNYFIIEFDKPFTYKATVENGNLQENVAEQTTDHAGAIIGFKTRKGEQVNARIASSFISFEQAAANMNELGKDNIEQLAQKGKDAWNQVLGKIEVEGGNLDQYRTFYSCLYRSLLFPRKFYELDANGQPIHYSPYNGQVLPGYMFTDTGFWDTFRCLFPLLNLMYPSVNKEMQEGLINTYLESGFFPEWASPGHRGCMVGNNSASILVDAYMKGVKVDDIKTLYEGLIHGTENVHPEVSSTGRLGYEYYNKLGYVPYDVKINENAARTLEYAYDDWCIYRLAKELKRPKKEISLFAKRAMNYKNLFDKESKLMRGRNEDGTFQSPFSPLKWGDAFTEGNSWHYTWSVFHDPQGLIDLMGGKEMFVTMMDSVFAVPPIFDDSYYGQVIHEIREMTVMNMGNYAHGNQPIQHMIYLYDYAGQPWKAQYWLRQVMDRMYTPGPDGYCGDEDNGQTSAWYVFSALGFYPVCPGTDEYVMGTPLFKKATLHFENGNSLVIDAPNNSTENFYIDSMSFNGADHTKNYLRHEDLFKGGTIKVDMSNRPNLNRGTKEEDMPYSFSKE
[1]; enzyme Bt3990, pH 7.0
  Km: 760 ± 110 µM
  kcat: 86.7 ± 5 s⁻¹
  kcat/Km: 113000 M⁻¹ s⁻¹
[2]; enzyme Bt3990, pH 7.0
  Km: 4200 ± 420 µM
  kcat: 0.0933 ± 0.00467 s⁻¹
  kcat/Km: 21.7 M⁻¹ s⁻¹

B5: Bt2199 (Bacteroides thetaiotaomicron VPI-5482) (protein)
chain: MVTRLFFLSICFPFLLTSCQQSKKTVEFVDYVNPLMGTESTFAFSHGNTYPAVAVPWGMNFWSPQTGENGSGWMYTYTDSLMRGFRQTHQPSPWINDYGTFSIMPLAGELKMSHKERLVPFSHQQEKATPYNYSVTFNNGLQTSLSATSRGAVFEVSFPEKEDQYVVVDAYNGGSSITIEPEKRLVKGATRYNNGGVPDNFANYFMMEFSHPVIEYGTYNGDTLLHHQTDVAADYTCAYLKFDVPAGEKLTIRTASSFISPEQAAINFNREVADADVQLISGKAREQWNNYLGRVEAEGGTDEQLRTFYSCLYRTLLFPREFYEFDSQGNPVYYSPYDGNVHDGYMYTDNGFWDTFRAVHPLFTLLYPEVSERVTQSIINAYNESGFMPEWASPGHRGCMIGNNSVSLLVDAWMKGIQTVDAEKALEAMIHQTQARHAEIASVGRDGFEYYDKLGYVPYPEVPEATAKTLEYAYADWCIARFAESLGKQDIADQYYQKAPNYRNLYYPEHGFMWTKDAKGNWRDRFDATEWGGPFTEGSSWHWTWSVFHDPEGLSELMGGHEPMIARLDSMFVAPNTYNYGTYGFVIHEIAEMVALNMGQYAHGNQPVQHAIYLYDYIGQPWKTQYHLRNVMDKLYNSGSKGYCGDEDNGQTSAWYVFSAMGFYPVCPGMPEYAIGSPLFKKVTLHLPEGKNFVVSAADNAADRPYIRKALLNGQEFTRNYLTHDELKQGGELNLSMDSVPNQQRGTQPADFPYSYSK
[1]; enzyme Bt2199, pH 7.0
  kcat: 40 ± 2.33 s⁻¹
  kcat/Km: 60000 M⁻¹ s⁻¹
[2]; enzyme Bt2199, pH 7.0
  kcat: 0.105 ± 0.00483 s⁻¹
  kcat/Km: 14 M⁻¹ s⁻¹

B6: Bt3858 (Bacteroides thetaiotaomicron VPI-5482) (protein)
chain: HTDQTPTKDFVDYVNPYIGNISHLLVPTYPTVHLPNSMLRVYPERGDYTSDRVNGLPVVVTSHRGSSAFNLSPVQGEVSRPIVSYSYDLENITPYSYSVYLDEADIQVEYAPSHQAGIYHISFGTEGDNALVVNTKNGKLVAEEKGVSGYQVIDNTPTKIYLYLETSQLPLRKGVLADGKVDMESKEGSAIALYYGSEKNLNLRYGISFISAEQAKKNLQRDITTYDVKAVADAGRRIWNKTLGKIVIEGGSEDEKEIFYTSLYRTYERMINLSEDGKYYSAFDGKIHEDGGVPFYTDDWIWDTYRATHPLRILIEPQKELDMIRSYIRMAEQSDRRWMPTFPEVTGDSHRMNGNHAVAVIWDAYCKGLKDFDLEAAYEACKGAITEKTLLPWLRCPLTELDKFYQEKGFFPALNPGEEETCKAVHSFERRQAVAVMLGNCYDNWCLAQIARTLNKTDDYKKFMRMSYTYRNVYNAETGFFHPKNKDGKFIEPFDYRYSGGQGARGYYGENNGWIYRWDVQHNPADLIALMGGQASFIERLNQTFNEPLGRSKFDFYHQLPDHTGNVGQFSMANEPCLHIPYLYNYAGQPWMTQKRIRVLLNQWFRNDLMGVPGDEDGGGMTAFVVFSMMGFYPVTPGSPTYNIGSPVFQSAKMEVGDGHYFEIIAENYAPDHKYIQSATLNGTPWNKPWFSHADIQNGGRLVLQMGDKPNKKWGIASDAVPPSSESLPE
[3]; enzyme Bt3858
  Km: 1400 ± 170 µM
  kcat: 40 s⁻¹
  kcat/Km: 28300 M⁻¹ s⁻¹
[2]; enzyme Bt3858, pH 7.0
  Km: 270 ± 65 µM
  kcat: 0.000417 ± 1.67e-05 s⁻¹
  kcat/Km: 1.57 M⁻¹ s⁻¹
